In assay [1] the target is human immunoglobulin G, biotinylated. The assay can be described thus: microtiter plate dissociation assay (immobilised mutant, hIgG-biotin detected with streptavidin-alkaline phosphatase, A405). The conditions noted are these: 2 µg/ml mutant conjugated, 6 µM hIgG-biotin, read off a plot, scale: normalized absorbance at 405 nm.
For assay [2], the target named is Fc portion of human immunoglobulin G, biotinylated. The assay can be described thus: yeast surface display end-point dissociation assay, flow cytometry (strep-PE). The conditions noted are these: dissociation at pH 4.5 for 30 min; parent: est. 0.88; read off a plot; scale: normalized fluorescence. (In flow cytometry, cells or beads pass a laser one at a time.)
The mark [3] stands for this setting: dissociation at pH 2.5 for 30 min, parent: est. 0.33.
[4] abbreviates: dissociation at pH 3.5 for 30 min, parent: est. 0.91.
The mark [5] stands for this setting: dissociation at pH 4.5 for 30 min, parent: est. 1.0.

On to “Sso7d-hFc with a C-terminal cysteine Sso7d-ev-hFc”, for which the response in assay [1] (setting [3]) amounted to 0.35; in assay [1] (setting [4]), 0.87; in assay [1] (setting [5]) it was 1.
Take “Sso7d-hFc with a C-terminal cysteine Y40H”: the results for the response in assay [1] (setting [3]), in assay [1] (setting [4]) and in assay [1] (setting [5]) were 0.33, 0.79 and 1, respectively.
Take “Sso7d-hFc, yeast cell surface fusion Sso7d-ev-hFc”: the response in assay [2] was found to be 0.06.
The same measure, in the same setting: the result for “Sso7d-hFc, yeast cell surface fusion Y40H” reads 0.1.

The values above are taken from paper PMC3492137.
